Measured values from patent US10098962B2, “Glycosaminoglycan derivative and method for producing same” (Seikagaku Corporation, priority 2013, dated 2018).
Read-outs that look alike come from different tables or passages of the source.

Assays:
[1] = rat, in vivo, inhaled or intranasal
Method: As a system for test, BN/CrlCrlj rat (Charles River Laboratories International, Inc., 5-week old) was used.
For administration of each test substance, the test system was fixed dorsally under general anesthesia, and by using a sonde for intratracheal administration (MicroSprayer® Aerosolizer Model IA-1B, manufactured by Penn-Century), intratracheal administration was performed with volume of 100 μL. As general anesthesia, inhalation of isoflurane (Forane (registered trade mark), Dainippon Pharmaceutical Co., Ltd., concentration of 3.0%, flow rate of 2.0 L/min) filled in a small animal anesthetizer (TK-4, manufactured by BioMachinery Co., Ltd.) was used.
At Hour 4, 24, 48, 72 and 168 after administration of a test substance, the pulmonary tissue was collected by using scissors and forceps under pentobarbital anesthesia. Meanwhile, three samples were taken for each evaluation time point. […]
Each parameter of drug kinetics was calculated from a change in average content in pulmonary tissue. If there was an animal showing the measurement value of less than lower limit of quantification (<10 ng/g), the average content in pulmonary tissue was calculated by having the value of 0 (zero) for it. The time t (hr) for calculating AUC0-t was the final time point at which the quantification can be made. […]

[2] = system: rat model of muscle pain disorder caused by silver nitrate; assay: Effect of diclofenac coupled hyaluronic acids in rat model of muscle pain induced by silver nitrate (Test Example B5); format: in vivo; conditions: for duration of analgesic effect: 1% (w/v), intramuscular, observed for 3 days; for pain score vs control group / muscle pressure pain threshold value vs control group: i.m. 100 μL/site, 1% (w/v) in citric acid buffer, 24, 48, 72 h after administration; for pain score vs control group: FIG. 7; for muscle pressure pain threshold value vs control group: FIG. 8
Method: As an inflammatory agent, 0.1 mol/L silver nitrate solution was filtered through a 0.22 μm filter and used. […] Accordingly, a rat model of muscle pain disorder caused by silver nitrate was prepared. […] At Hour 24 after the administration of 0.1 mol/L silver nitrate solution, the rats were divided into 3 groups, and each group was administered with either the test substance or citric acid buffer solution. […] Furthermore, ** and * represent, in the parametric Tukey test, **p<0.01 and *p<0.05 (vs Control), respectively. […] The length of move of the weight at which a pain-related behavior like avoidance is shown was read to one decimal place. This operation was repeated three times in total, and the median value was taken as the muscle pressure pain threshold value. […] Furthermore, *** represents, in the parametric Tukey test, ***p<0.001 (vs Control).

[3] = system: rat model of muscle pain disorder caused by carrageenan; assay: Effect of diclofenac coupled sodium hyaluronates in rat model of muscle pain disorder caused by carrageenan, 14 days (Test Example B7); format: in vivo; conditions: for muscle pressure pain threshold value vs control group: 1% (w/v) i.m. 14 days before carrageenan, measured 3 h after carrageenan, FIG. 10; for duration of analgesic effect: 1% (w/v), intramuscular administration
Method: The following were prepared as a test substance in which citric acid buffer is used as a solvent. As an inflammatory agent, 10 mg/mL carrageenan solution was used. […] A rat (Crj: SD line (SPF), male, 7-week old) was fixed dorsally under general anesthesia, and a broad region around the left gastrocnemius muscle was shaved using a shaver.

[4] = Release test for conjugates obtained from Examples 26 to 28, citrate buffer pH 5.1 (Test Example A7); format: physicochemical
Method: The amount of the dissociated diclofenac component which is present in a solution in an initial state (storage: Day 0) immediately after the dissolution was subjected to quantitative analysis based on ODS-HPLC. […] Meanwhile, the method for pre-treatment of HPLC sample is described below. Methanol (1 mL) was added to the stored solution (1 g). After dilution and addition of acetonitrile to 20 mL, the hyaluronic acid component was allowed to precipitate. The obtained supernatant was used as a HPLC sample. HPLC conditions are as follows. column: […] flow rate: 1 mL/min temperature: 35° C.

[5] = system: rat model of muscle pain disorder caused by carrageenan
Method: (§2) As an inflammatory agent, 10 mg/mL carrageenan solution was used. As general anesthesia, inhalation of isoflurane (concentration of 3.0%, flow rate of 2.0 L/min) filled in a small animal anesthetizer (TK-4, manufactured by BioMachinery Co., Ltd.) was used.
(§3) A rat (Crj: SD line (SPF), male, 8-week old) was fixed dorsally under general anesthesia, and a broad region around the left gastrocnemius muscle was shaved using a shaver. The area for injection was sprayed with 70% alcohol for sterilization, and by using an injection tube applied with needle for subcutaneous insulin administration (MYJECTOR (registered trade mark), TERUMO CORPORATION), each test solution was injected (volume of 100 μL/site) for intramuscular administration into the left medial gastrocnemius muscle of a rat.
(§4) 10 Days after administering the test substance, each group was administered with 10 mg/mL carrageenan solution. As for the administration method, like the test substance, under inhalation of isoflurane, the region around the gastrocnemius muscle was sprayed with 70% alcohol for sterilization, and by using an injection tube applied with 29 G needle for subcutaneous insulin administration, it was injected (volume of 100 μL/site) for intramuscular administration into the left gastrocnemius muscle of a rat. […]

[6] = Release test for conjugates obtained from Examples 18 to 21 (Test Example A5); format: physicochemical; conditions: 0.1% in 20 mM sodium phosphate buffer pH 7.0, 36°C
From the text: The amount of the dissociated diclofenac component which is present in an initial state (storage: Day 0) immediately after the dissolution, and the amount of diclofenac ester which has been forced to dissociate by using a base were subjected to quantitative analysis based on ODS-HPLC. […] From the ratio between the obtained amount of the dissociated diclofenac component at each time point and the amount of dissociated diclofenac component resulting from forced dissociation, the dissociation ratio (%) was calculated. For a pre-treatment of a HPLC sample, OASIS HLB was used, and a fraction eluted by acetonitrile was analyzed. HPLC conditions are as follows. column: […] temperature: 35° C.

[7] = Release test for conjugates obtained from Examples 22 to 25 (Test Example A6); format: physicochemical; conditions: 0.1% in 20 mM sodium phosphate buffer pH 7.0, 36°C
From the text: (§1) The amount of the dissociated diclofenac component which is present in an initial state (storage: Day 0) immediately after the dissolution, and the amount of diclofenac ester which has been forced to dissociate by using a base were subjected to quantitative analysis based on ODS-HPLC. […] From the ratio between the obtained amount of the dissociated diclofenac component at each time point and the amount of dissociated diclofenac component resulting from forced dissociation, the dissociation ratio (%) was calculated. For a pre-treatment of a HPLC sample, OASIS HLB was used, and a fraction eluted by acetonitrile was analyzed. HPLC conditions are as follows. column: […] flow rate: 1 mL/min temperature: 35° C.

[8] = Release test for conjugates obtained from Examples 15 to 17 (Test Example A4); format: physicochemical; conditions: 0.1% in 20 mM sodium phosphate buffer pH 7.0, 36°C
From the text: as §1

[9] = system: rat model of muscle pain disorder caused by silver nitrate; assay: Effect of NSAID coupled chondroitin sulfates in rat model of muscle pain induced by silver nitrate (Test Example B3); format: in vivo; conditions: i.m. 100 μL/site, 1% DF-CS or 5% other conjugates in PBS, 24, 48, 72 h after administration
Method: As an inflammatory agent, 0.1 mol/L silver nitrate solution was filtered through a 0.22 μm filter and used. […] Accordingly, a rat model of muscle pain disorder caused by silver nitrate was prepared. […] Furthermore, *** and * represent, in the parametric Tukey test, ***p<0.001 and *p<0.05 (vs Control), respectively. Score 0: Normal Score 1: Mild claudication Score 2: Severe claudication Score 3: Walking on three legs […] The length of move of the weight at which a pain-related behavior like avoidance is shown was read to one decimal place. This operation was repeated three times in total, and the median value was taken as the muscle pressure pain threshold. […] Furthermore, *** and * represent, in the parametric Tukey test, ***p<0.001 and *p<0.05 (vs Control), respectively.

[10] = system: rat model of muscle pain disorder caused by carrageenan; assay: Effect of diclofenac coupled chondroitin sulfate in rat model of muscle pain disorder caused by carrageenan, 7 days (Test Example B8); format: in vivo
Method: The followings were prepared as a test substance in which PBS is used as a solvent.
as §2
A rat (Crj: SD line (SPF), male, 9-week old) was fixed dorsally under general anesthesia, and a broad region around the left gastrocnemius muscle was shaved using a shaver. The area for injection was sprayed with 70% alcohol for sterilization, and by using an injection tube applied with needle for subcutaneous insulin administration (MYJECTOR (registered trade mark), TERUMO CORPORATION), the test solution was injected (volume of 100 μL/site) for intramuscular administration into the left gastrocnemius muscle of a rat.
7 Days after administering the test substance, each group was administered with 10 mg/mL carrageenan solution. As for the administration method, like the test substance, under inhalation of isoflurane, the region around the gastrocnemius muscle was sprayed with 70% alcohol for sterilization, and by using an injection tube applied with 29 G needle for subcutaneous insulin administration, it was injected (volume of 100 μL/site) for intramuscular administration into the left gastrocnemius muscle of a rat. […]

[11] = Release test for conjugates obtained from Examples 26 and 32 at 60, 40, 25°C (Test Example A9); format: physicochemical
Method: The amount of the dissociated diclofenac component which is present in a solution in an initial state (storage: Day 0) immediately after the dissolution was subjected to quantitative analysis based on ODS-HPLC. Other aliquot was stored at 60° C., 40° C., or 25° C. immediately after the dissolution, the decomposition amount of diclofenac ester was similarly subjected to quantitative analysis after lapse of the each designated time. From the ratio between the obtained amount of the dissociated diclofenac component at each time point and the amount of dissociated diclofenac component resulting from forced dissociation, the dissociation ratio (%) was calculated. For a pre-treatment of a HPLC sample, OASIS HLB was used, and a fraction eluted by acetonitrile was analyzed. HPLC conditions are as follows. column: […] flow rate: 1 mL/min temperature: 35° C.

[12] = system: rat model of muscle pain disorder caused by carrageenan; assay: Effect of diclofenac coupled hyaluronic acid in rat model of muscle pain disorder caused by carrageenan, 10 days (Test Example B6); format: in vivo
Method: The following were prepared as a test substance in which citric acid buffer is used as a solvent.
as §2, §3, §4

[13] = 1% in sodium citrate buffer pH 5.1, 40°C, after 4 weeks
[14] = 1% in sodium citrate buffer pH 5.1, immediately after dissolution
[15] = 1% (w/v), intramuscular administration

In the case of `C[C@H]1C[C@H]2[C@@H]3CCC4=CC(=O)C=C[C@]4(C)[C@@]3(F)[C@@H](O)C[C@]2(C)[C@@]1(O)C(=O)CO` [Betamethasone], the AUC0-t [1] is reported as 21371 ng·h/g and the “AUC0-∞” value [1] is reported as 21797 ng·h/g.

In the case of “Diclofenac(1-amino-2-propanol)-hyaluronic acid”, the “duration of analgesic effect” value [2] is reported as 3 days, the “pain score vs control group” value [2] is reported as “improved in a significant sense” and the “muscle pressure pain threshold value vs control group” value [2] is reported as “increased in a significant sense”. For the same compound, the “muscle pressure pain threshold value vs control group” value [3] was “increased in a significant sense” and the “duration of analgesic effect” value [3] was 14 days.

For “Diclofenac(serine ethyl ester)-hyaluronic acid”, the “Content of dissociated diclofenac (w/w %)” value (“Content … (w/w %)” for short) [4, 13] was 0.72 w/w % and the “Content … (w/w %)” value [4, 14] was 0.05 w/w %.

For “Diclofenac(threonine ethyl ester)-hyaluronic acid”, the “Content … (w/w %)” value [4, 13] was 0.19 w/w % and the “Content … (w/w %)” value [4, 14] was 0.00 w/w %.

In the case of “diclofenac (1-amino-2-propanol)-chondroitin sulfate [Example A4-1]”, the “muscle pressure pain threshold value vs control group” value ([5]; 1% (w/v) i.m. 10 days before carrageenan, FIG. 12) is reported as “increased in a significant sense” and the “duration of analgesic effect” value [5, 15] is reported as 10 days.

Compound “diclofenac (1-amino-3,3-dimethylbutan-2-ol)-chondroitin sulfate [Example A5-1]” has a diclofenac dissociation ratio ([6]; day 0) of 0.0%, a diclofenac dissociation ratio ([6]; day 1) of 0.0% and a diclofenac dissociation ratio ([6]; day 2) of 0.1%. For the same compound, the diclofenac dissociation ratio ([6]; day 4) was 0.1% and the diclofenac dissociation ratio ([6]; day 8) was 0.2%.

With “diclofenac (1-amino-3,3-dimethylbutan-2-ol)-hyaluronic acid [Example A6-1]” the diclofenac dissociation ratio ([7]; day 0) was 0.0%, the diclofenac dissociation ratio ([7]; day 1) was 0.1% and the diclofenac dissociation ratio ([7]; day 2) was 0.2%. For the same compound, the diclofenac dissociation ratio ([7]; day 4) was 0.4% and the diclofenac dissociation ratio ([7]; day 8) was 0.8%.

Compound “diclofenac (2-amino-1-cyclohexylethan-1-ol)-chondroitin sulfate [Example A5-3]” has a diclofenac dissociation ratio ([6]; day 0) of 0.0%, a diclofenac dissociation ratio ([6]; day 1) of 0.1% and a diclofenac dissociation ratio ([6]; day 2) of 0.1%. For the same compound, the diclofenac dissociation ratio ([6]; day 4) was 0.2% and the diclofenac dissociation ratio ([6]; day 8) was 0.4%.

Work on “diclofenac (2-amino-1-cyclohexylethan-1-ol)-hyaluronic acid [Example A6-3]” yielded a diclofenac dissociation ratio ([7]; day 0) of 0.0%, a diclofenac dissociation ratio ([7]; day 1) of 0.2% and a diclofenac dissociation ratio ([7]; day 2) of 0.4%. It also gave a diclofenac dissociation ratio ([7]; day 4) of 0.7% and a diclofenac dissociation ratio ([7]; day 8) of 1.6%.

For “diclofenac (4-amino-3-hydroxybutyric acid ethyl ester)-chondroitin sulfate [Example A5-4]”, the diclofenac dissociation ratio ([6]; day 0) was 0.1%, the diclofenac dissociation ratio ([6]; day 1) was 0.4% and the diclofenac dissociation ratio ([6]; day 2) was 0.9%. It also gave a diclofenac dissociation ratio ([6]; day 4) of 1.7% and a diclofenac dissociation ratio ([6]; day 8) of 3.3%.

“diclofenac (4-amino-3-hydroxybutyric acid ethyl ester)-hyaluronic acid [Example A6-4]” gave a diclofenac dissociation ratio ([7]; day 0) of 0.2%, a diclofenac dissociation ratio ([7]; day 1) of 1.7% and a diclofenac dissociation ratio ([7]; day 2) of 3.2%. It also gave a diclofenac dissociation ratio ([7]; day 4) of 6.2% and a diclofenac dissociation ratio ([7]; day 8) of 13.0%.

“diclofenac (serine ethyl ester)-chondroitin sulfate [Example A4-2]” showed a diclofenac dissociation ratio ([8]; day 0) of 0.0%, a diclofenac dissociation ratio ([8]; day 1) of 10.9% and a diclofenac dissociation ratio ([8]; day 2) of 16.9%. For the same compound, the diclofenac dissociation ratio ([8]; day 4) was 31.9% and the diclofenac dissociation ratio ([8]; day 8) was 42.2%.

Compound “diclofenac (threonine ethyl ester)-chondroitin sulfate [Example A4-3]” has a diclofenac dissociation ratio ([8]; day 0) of 0.1%, a diclofenac dissociation ratio ([8]; day 1) of 2.0% and a diclofenac dissociation ratio ([8]; day 2) of 4.0%. For the same compound, the diclofenac dissociation ratio ([8]; day 4) was 7.2% and the diclofenac dissociation ratio ([8]; day 8) was 10.5%.

In the case of “diclofenac-(2-aminoethanol)-chondroitin sulfate [DF-CS]”, the “pain score vs control group” value ([9]; FIG. 3) is reported as “improved in a significant sense”, the “muscle pressure pain threshold value vs control group” value ([9]; FIG. 4) is reported as “increased in a significant sense” and the “muscle pressure pain threshold value vs control group” value ([10]; 1% (w/v) i.m. 7 days before carrageenan, measured 3 h after carrageenan, FIG. 11) is reported as “increased in a significant sense”. The “duration of analgesic effect” value [10, 15] was 7 days.

With “diclofenac-(2-aminoethanol)-hyaluronic acid” the diclofenac dissociation ratio ([11]; 1% in sodium citrate buffer pH 5.1, 25°C, 0 y (year)) was 1.3%, the diclofenac dissociation ratio ([11]; 1% in sodium citrate buffer pH 5.1, 25°C, 0.5 y (year)) was 6.2% and the diclofenac dissociation ratio ([11]; 1% in sodium citrate buffer pH 5.1, 25°C, 1 y (year)) was 10.9%. The diclofenac dissociation ratio ([11]; 1% in sodium citrate buffer pH 5.1, 40°C, 0 m (month)) was 1.3%, the diclofenac dissociation ratio ([11]; 1% in sodium citrate buffer pH 5.1, 40°C, 4 m (month)) was 13.5% and the diclofenac dissociation ratio ([11]; 1% in sodium citrate buffer pH 5.1, 40°C, 6 m (month)) was 18.2%. For the same compound, the diclofenac dissociation ratio ([11]; 1% in sodium citrate buffer pH 5.1, 40°C, 9 m (month)) was 23.7%, the diclofenac dissociation ratio ([11]; 1% in sodium citrate buffer pH 5.1, 40°C, 12 m (month)) was 28.2% and the diclofenac dissociation ratio ([11]; 1% in sodium citrate buffer pH 5.1, 60°C, day 0) was 1.3%. It also gave a diclofenac dissociation ratio ([11]; 1% in sodium citrate buffer pH 5.1, 60°C, day 7) of 8.1%, a diclofenac dissociation ratio ([11]; 1% in sodium citrate buffer pH 5.1, 60°C, day 14) of 12.7% and a diclofenac dissociation ratio ([11]; 1% in sodium citrate buffer pH 5.1, 60°C, day 21) of 16.4%. For the same compound, the “duration of analgesic effect” value [2] was 3 days, the “pain score vs control group” value [2] was “improved in a significant sense” and the “muscle pressure pain threshold value vs control group” value [2] was “increased in a significant sense”. For the same compound, the “muscle pressure pain threshold value vs control group” value ([12]; 1% (w/v) i.m. 10 days before carrageenan, measured 3 h after carrageenan, FIG. 9) was “increased in a significant sense”, the “duration of analgesic effect” value [12, 15] was 10 days and the “muscle pressure pain threshold value vs control group” value [3] was “not increased”. For the same compound, the “duration of analgesic effect” value [3] was “less than 14 days”.
